Assay: soluble on expression in E. coli; label from the status in PepcDB or PDB records

| Sequence | soluble on expression in E. coli |
| --- | --- |
| MKIEKFKVLLYLKKSRPDKSGKAPIMGRITVNRSMVQFSCKLSCTPDLWNPRESRLNGKSNEAVEVNAKLDKLLLSIHAAFDTLVERKADFDAEAVKNLFQGSLETQMTLLAMTDIVCEELRKRIGIDRAKGTYPAYFYTRRTLAEFIQKKFHSKDIAFGQLTEQFIHDYQFFVVDDKGLTIETSRHYLAIIKKVCRKAYKEGYADKCFFAHFSLPKQEEKTPKALSRESFEKIRDLVIPEHRSSHILARDLFLFACYTGTSYADAVSVTRDNLFTDDEGSLWLKYRRKKNELQACVKLLPEALELIEKYNDDTRPTLFPMLYHPNLRRLMKCLAVLADIKEDLTYHAGRHSFASLITLEAGVPIETICKMLGHSNLQTTQRYAKVTPKKLFEDMDKYIEATKDLKLIL | not soluble |
| MSLINKHVISEKIKKAIVEANIKINPEVEEIIERYEGPFSDIIKENYRVSKEEKLPLCQDTGIVEFFVFIGHEVKLEEPIEETLNRAVGEVYSEYPFRYSVVSDPLFERINTGTNTPAIVHIFQVKGKSLEIRFLVRGGGSENLTVLRMMTPTSDVEKVKEFVIEHIKEHGAKACPPLHVGIGIGGTADKALLLSKLALTKSFKERNKDPKYAGLEKELEKELNFLGIGFQGLGKGITVYSVHIEHFPTHIATLPVAVSVDCYLCRRGKVTFEDEGGSHHHHHH | soluble |
| MGSDKIHHHHHHMFCKVMKIGISCHHTYGGSGAVATELGKALAMKGHTVHFFSQAAPFRLGLYSRNIYCHEIEAMNYPLFETPYHSLALASKIAEVAFYEKLDVVHAHYAIPHAISAMLARQMLEEKCPAAECFRIVTTLHGTDITIVGADRSMSDAVRLAINKSDGVTAVSGYLRDETIRMFTPRKKIEVIHNFVDTAVFKRLPGRRDLLGLDGGKVVIHISNFRPVKRIMDVLAVFESIRREIPATLLLVGDGPDRSEAETWVRNYGIGDRVRFLGKLDDIVPLLSIADLMLMPSNVESFGLAALEAMACGVPVVVTDAGGFPEFVRQGVDGFRHPHGDIEGMSRSALSILRDDEVWQRFSGAAANQAGRFKTALKVKEYEAFYRRLIDEARERKAQ | not soluble |
| TQQPIVTGTSVISMKYDNGVIIAADNLGSYGSLLRFNGVERLIPVGDNTVVGISGDISDMQHIERLLKDLVTENAYDNPLADAEEALEPSYIFEYLATVMYQRRSKMNPLWNAIIVAGVQSNGDQFLRYVNLLGVTYSSPTLATGFGAHMANPLLRKVVDRESDIPKTTVQVAEEAIVNAMRVLYYRDARSSRNFSLAIIDKNTGLTFKKNLQVENMKWDFAKDIKGYGTQKI | soluble |
| GSFLPNSEQQKSVDIVFSSPQDLTVSLIPVSGLKAGKNAPSAKIAKLVVNSTTLKEFGVRGISNNVVDSTGTAWRVAGKNTGKEIGVGLSSDSLRRSDSTEKWNGVNWMTFNSNDTLDIVLTGPAQNVTADTYPITLDVVGYQP | soluble |
| MRMLAAERRDHLLGLLARQGKIVAKDVAAELRISEDTVRRDLRDLASEGLCQRVYGGALPVSPAVADYGARRTVAPDGKRKVASAAAGLVRPGGVVILDGGTTALAVVHALPEDLDCTVITHSPTIAAALLDHPRAEVFVLGGRLFKHSAVACGAAAVEAAQNVSADLFLLGVTGVHLEAGLTTGDAEDAAMKRALAARAADTYVLASSEKIGTASRYRVLPWEEISGLVTDTPPHDPVIEQLTAGGVDVLAADAAALEHHHHHH | not soluble |
| MSQPAKVLLLYAHPESQDSVANRVLLKPAIQHNNVTVHDLYARYPDFFIDTPYEQALLREHDVIVFQHPLYTYSCPALLKEWLDRVLSRGFASGPGGNQLVGKYWRSVITTGEPESAYRYDALNRYPMSDVLRPFELTAAMCRMHWMPPIIVYWARRQSPQTLASHAKAYGEWLANPVSAGGY | not soluble |
| TESVYITTPYLIIDYDLTETIKNAAMRGVDVRIITPYIPDKKFIQLVTRGAYPDLLSAGVRIYEYSPGFIHSKQMLVDEDFAVVGTINLDYRSLVHHYENAVLLYKTPSIREIARDFRNIFADSQEVYPHSIKT | not soluble |
| MKLSQVVVSAVAFTGLVSAANSSNSSSSKNAAQPIAGLNNGKVAGAAGVALAGALAFLI | soluble |
| MSSRTANSSSRNDESLRTGQHKENPNYWGFANFPNQVFRRAVKNGFDFTLMVVGRSGLGKSTFINTLFLAEINNLNEKESAPTHPHPSTVRVEEKLVKLVENSVSLNLTLVDTPGFGDAVNNSKCWEPIVNYVESKFFEQFCEETRIDRGEKIVDKCVHLCLYFIEPSGHGLKPIDIELMKHLHGRVNIVPVISKADCLTRDELLRFKKQIVKDAETAEIKLYKFPELEDPYTDKVAIEKLRKALPFAIIGSNMLKEKDGKKIRYREYPWGTVEVENMQHNDFLTLRDMIIRTNLIDMIDVTRNVHYENFRFRQMEGLPKNEKNRDPFTHLEEERRQKEQDLDEKRNTLEKVFTEKTSARKKRSDERMSALEELEQQNKQKIDAKRAEIIRLRHEISELKNGNLTSSQTSLAMYNENNHSQNSTLNSTTKSSPPPTSATSSSSGTMKKRMGGLGLFNRN | not soluble |
| MSLDIENTLLKQEAWRFIDNTTINPAFDAIQSFATDDTLCRSVGARMVPPTVRGWVHEKTVSLGIQDSKLPDIDKGIAFLQEQGYRVVVRNSGGLAVVLDSGVLNLSMVLPDAERGIAIERGYETMFTLIKDMFVDCNEVIEAKEIVNSYCPGSYDLSIQGQKFAGISQRRMAKGVAVQIYLAVEGDQAARSELIRDFYTISGKDKQTKYSFPDVKPEVMGTLSDLMKENMTVNGCLVRLFNSLRHYAGKLESGTLTPEELDLFPAYYERLIARNDKVLSEGHHHHHH | soluble |
| MGSDKIHHHHHHMNHFFVEFGEYEASVCEWGDKSNPQIICFHGLGSTKLSFIEVAELLKDSYHIVSFDLPGHGKTQNFEKDEDYGASHLTNWVVALLEHIGKETFHIVAHSWGASVALHYAAECPEKVNKIVLLDGGYHHGKMNADYFANLYKDAKEGECPPRSLEEEITHYENDFDEYIFDSKETFIQSEKLAYSRWSPLLERAVYDLMREEDSKVKWHATGDTARGVIKFQYTVYKTLKPHKIKSDILLLYCDLPDNYLEIRELQIVEFKKRINITTKLYKDTGHLMHWDRPEEIAEDVLHWFK | not soluble |
| MGSDKIHHHHHHMMKKTHYNILMVNLPFSGHTNPTLGLAQILVQLGHNVTYINAPDWQSKIERTGAHFVPYDHYPDSLSERQKKVKSWSAAYQTVLRMGKDYDCLIYEMLFFPGKALADRLNIPAYRLFSTFSLNEKILTEFGKTGGFYLTSIFRFTFLRHLLSRKLQRTFQLAYDDLAKEISLNTPELNFTYTVREFQIDADTFDENHYQYVGPSINRPVEPPFDFTPFKNPIIYISLGTLLNRSVSFFKKCIKAFENEPYSIIISLGNRIKKEQLGTMPANVHLYSFVPQLQILERASLFLTHGGMNSVNEAIYYGCPMLVIPVGNDQPRVAQQVADLHLGKCLKCHNLNPQEIKQAAHTILKDSSYKNTIWHFQKIAQTAGGNTLIAQTIIKDLQTKP | not soluble |
| MDHSPWQRCLSVLQEELPAQQFSMWIRPLQCVINDNVMTLYAPNRFVLDWVRDKYVNRINELLTINESNNPLLLRFDVGSKPTIDNSVTNSPVSRNTGGNESLFAKATSAPKVAEPESNIPKKTNVRLNYTFENFVEGKSNQLARAAASQVADNPGTAYNPLFIYGGTGLGKTHLLHAVGNGILLNKPNAKIAYMHSERFVQDMVRALQNNAMEKFKQYYRSVDALLIDDIQFFAGKERTQEEFFHTFNALLEGNQQVILTSDRYPKEINGVDDRLKSRFGWGLTLAIEPPELETRVAILKRKAQESQINLADEVAFFIAKRLRSNVRELEGALNRVIANANFTGRAITIDFVREALRDLLALQDKLVTIDNIQRTVAEYYKIKIADLLSKRRNRSVARPRQIAMALSKELTNHSLPEIGDAFGGRDHTTVLHACRKVKSLREETHDIKEDYSNLIRTLSSLEHHHHHH | not soluble |
| MIKILQTKSGVTKFQVLIEIAAHQPNVRQKEIAAKIGITPQAVSEYIKELVNDGLIVTEGRVRYRITKEGVEWVLENATEMKQYARFVMEDIISHVSTWTAITREEVKEGQQVYLKMDHGLLYVSSREVTGASGAIISDAAEGEDVGVTSLKGLIDLENATITICKVPRVERGGSRKVDLERLKMLADAKPYIAAIGVESLIALRKIGISPNVMFGTNESVIEAAYHGLSSLVVSVDEQVSALLNRLETENLEYELVDLTVE | not soluble |
| QTLTEEEVLKKLDKEQMRASFEDMRRIMPDLGFEAKGYALSFEQLAQLKIPVIVYLKYRKDDHFSVLRGIDGNTVLLADPSLGHVSMSRAQFLDAWQTREGNLAGKILAVIPKKAETISNKLFFTQHPKRQTEFTVGQIRQARAE | not soluble |
| MGSDKIHHHHHHAALSTNTVAVEKAPDMVAVMGGEPEVMLDKALEALGGIGNFVKKGQKIVIKPNIGWDRSPELAGNTNPKLVKALVKKCLEAGASKVTVFDHTCDNWQKCYETSGIAEAVKEAGGIIMPANDEKYFKEVSIPGGVNLKSAKIHEALIEADAWINVPVLKNHGGAKMTCAMKNYMGIVWDRRFFHQNDLQQCIADICTWQKKPVLNIVDAYRIMHQNGPQGKSAADVATLKSLIASPNIVAIDTAALRLFNQVKKLDMAAVGHIGKGEALKLGTTNLDNVTIKRIKI | not soluble |
| MSLNARARALRHSRSGTIGLIVPDVNNAVFADMFSGVQMAASGHSTDVLLGQIDAPPRGTQQLSRLVSEGRVDGVLLQRREDFDDDMLAAVLEGVPAVTINSRVPGRVGSVILDDQKGGGIATEHLITLGHSRIAFISGTAIHDTAQRRKEGYLETLASAGLRSEAAWVVDAGWEADAGSAALNTLYRGANLGKPDGPTAVVVASVNAAVGALSTALRLGLRVPEDLSIVGINTTWVSDTVYPALTTVRLPLQRLGEVAADVLMEHLGGRALTDTVVTQPTPELLVRETTAPPTREGHHHHHH | soluble |
| MKTEKEEAEEEPFVIRPYLKSELAHKYNPHLPLIYAMQKLRGWIRNNKELYDAMYSGGEGKNDHAYSSRQVRLIVKFLDEP | not soluble |
| MGSDKIHHHHHHMGQIRVSGLGKAYKQYPNRWSRLFEWLVPFSPPRHHLHWILREVEFTIEPGEAVGIVGVNGAGKSTLLKMIAGTTQPTCGEIRVAGRVAALLELGMGFHPDFTGRQNVFMAGQLLGMQVEEIQALMPDIEAFAEIGEAIEQPVRTYSSGMQMRLAFSVATARRPDILIVDEALSVGDAYFQHKSFERIRSFRKAGTTLLIVSHDRSAIQSICDSAILLEQGRMAMRGRPEEVMDYYNALLAEREGQTVRQEMLADGQVRTISGTGEAAILDVRMVDQRQRALEVVEVGQAVTLEVEVEVRQDIERLILGFMIKDRLGQPMYGINTHRLDKALTDLKAGERITYRFAFDMRLGKGHYSVALSLSRLDSHLDRNFEWRDYGLVFHVINNRQEDFVGCSWLGAETHISRSGEAALDPTSAESTP | not soluble |
| MGSDKIHHHHHHAQESLFLKDPSTKNKLLQLDLDVGTCFDLAYRGKGNMYTAMSDRKSVFPAINLRLQHFFSRKWGWYTNIRLGIPVKYRRDCYTELVHAVEADYYVNNLIPGTQKPDVNPCLDFGVAYRFENSHWAFYPRLGIGVNSISYQRVCAELKKKGGNELYKIEYRGDDESNYGSESIDAFILSAGITANYKLSRNCFLLLNVNYIQPLGRFTYRKYVTDLYTGEKVERGVYKSSTFARDLNVSVGFGFPFYLGRKTNRKSSHRERTRQLMEQKRKTYGLFPGNK | not soluble |
| MASSSLVRIAVVGDIHGFWNLDEDRKALRVLQERKTKTKRCSNATRYMDFPSFKLSIVGGRPFSHGGDRLFRKNLLVQRYGVHDMEASAGSICRAAHGTPEDHVAIILAHNGPTGLGWQAEDICGKDWGAEGGDHGDPDLEQAIRQLKETTKLSIPLVVFGHMHKELQRGKGNRKMVVQDSDNQTVYVNGAIVPRVKEAKKRGAAESESGGTTRAFTLVEILDGKIKKIAEIWVHVNGSMAKIVEENTLFEDVT | soluble |

From the DeepSol protein solubility set
